# In IntAct's records for PubMed 25531777:
# B1: Rho-related GTP-binding protein Rho6 (Homo sapiens), Q92730 (parent)
# chain: MKERRAPQPVVARCKLVLVGDVQCGKTAMLQVLAKDCYPETYVPTVFENYTACLETEEQRVELSLWDTSGSPYYDNVRPLCYSDSDAVLLCFDISRPETVDSALKKWRTEILDYCPSTRVLLIGCKTDLRTDLSTLMELSHQKQAPISYEQGCAIAKQLGAEIYLEGSAFTSEKSIHSIFRTASMLCLNKPSPLPQKSPVRSLSKRLLHLPSRSELISSTFKKEKAKSCSIM
# Variants of: B1
# Settings: with PLXNB1, O43157-1
# Sequence of PLXNB1, O43157-1 (O43157 whole entry): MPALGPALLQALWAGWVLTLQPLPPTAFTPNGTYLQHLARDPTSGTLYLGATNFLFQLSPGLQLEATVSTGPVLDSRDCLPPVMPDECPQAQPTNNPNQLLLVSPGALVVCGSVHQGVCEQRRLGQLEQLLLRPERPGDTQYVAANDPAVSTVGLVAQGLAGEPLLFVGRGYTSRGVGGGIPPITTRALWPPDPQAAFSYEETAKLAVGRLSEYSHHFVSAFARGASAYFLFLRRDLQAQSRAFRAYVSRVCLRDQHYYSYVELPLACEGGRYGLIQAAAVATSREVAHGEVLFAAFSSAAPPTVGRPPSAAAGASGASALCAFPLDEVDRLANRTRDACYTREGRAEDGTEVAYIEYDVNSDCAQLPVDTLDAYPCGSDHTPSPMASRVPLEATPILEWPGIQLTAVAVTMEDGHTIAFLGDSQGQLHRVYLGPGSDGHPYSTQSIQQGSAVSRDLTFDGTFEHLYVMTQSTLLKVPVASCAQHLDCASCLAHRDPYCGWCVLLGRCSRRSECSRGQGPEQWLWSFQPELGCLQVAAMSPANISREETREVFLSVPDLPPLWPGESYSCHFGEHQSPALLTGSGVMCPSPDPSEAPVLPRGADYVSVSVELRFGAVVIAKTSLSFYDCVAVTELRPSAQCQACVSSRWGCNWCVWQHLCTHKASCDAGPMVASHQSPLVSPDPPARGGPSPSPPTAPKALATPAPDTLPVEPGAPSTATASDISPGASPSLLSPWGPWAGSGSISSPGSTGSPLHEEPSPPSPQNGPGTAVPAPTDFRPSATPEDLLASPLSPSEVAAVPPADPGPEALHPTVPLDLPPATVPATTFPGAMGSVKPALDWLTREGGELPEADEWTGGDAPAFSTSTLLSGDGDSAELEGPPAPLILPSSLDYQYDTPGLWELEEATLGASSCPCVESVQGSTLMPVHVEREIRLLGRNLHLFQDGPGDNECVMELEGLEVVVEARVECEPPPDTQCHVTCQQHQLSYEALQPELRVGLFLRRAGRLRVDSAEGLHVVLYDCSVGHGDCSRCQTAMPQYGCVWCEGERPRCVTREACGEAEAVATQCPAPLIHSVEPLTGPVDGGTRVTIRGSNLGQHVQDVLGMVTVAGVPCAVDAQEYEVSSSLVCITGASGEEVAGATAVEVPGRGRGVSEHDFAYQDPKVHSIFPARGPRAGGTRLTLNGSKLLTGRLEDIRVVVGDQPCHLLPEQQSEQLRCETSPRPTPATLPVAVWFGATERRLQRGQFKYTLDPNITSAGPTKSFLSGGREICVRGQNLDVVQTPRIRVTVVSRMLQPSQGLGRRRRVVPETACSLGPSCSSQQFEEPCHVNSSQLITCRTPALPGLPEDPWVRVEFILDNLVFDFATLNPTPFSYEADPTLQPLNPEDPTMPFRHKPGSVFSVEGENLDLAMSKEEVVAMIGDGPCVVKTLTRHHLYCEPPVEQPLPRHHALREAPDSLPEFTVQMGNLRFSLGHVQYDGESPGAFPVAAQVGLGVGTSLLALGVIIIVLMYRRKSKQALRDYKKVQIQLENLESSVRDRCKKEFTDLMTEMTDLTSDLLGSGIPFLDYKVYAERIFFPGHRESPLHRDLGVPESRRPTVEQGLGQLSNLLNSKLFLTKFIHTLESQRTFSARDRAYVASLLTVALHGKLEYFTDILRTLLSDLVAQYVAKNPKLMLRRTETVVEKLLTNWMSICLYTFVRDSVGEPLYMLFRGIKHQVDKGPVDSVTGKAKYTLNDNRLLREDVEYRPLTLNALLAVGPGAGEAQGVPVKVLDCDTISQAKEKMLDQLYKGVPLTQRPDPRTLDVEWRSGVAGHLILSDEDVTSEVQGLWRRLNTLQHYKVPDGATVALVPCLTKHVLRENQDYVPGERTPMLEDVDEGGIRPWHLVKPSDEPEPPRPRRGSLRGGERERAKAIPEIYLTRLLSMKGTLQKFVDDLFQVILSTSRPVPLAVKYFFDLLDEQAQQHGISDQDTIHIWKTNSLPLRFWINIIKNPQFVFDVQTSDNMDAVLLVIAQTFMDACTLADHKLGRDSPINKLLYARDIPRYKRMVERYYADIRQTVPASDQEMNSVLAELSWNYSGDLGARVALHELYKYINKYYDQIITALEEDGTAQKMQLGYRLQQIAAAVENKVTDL
row,effect of a mutation on the interaction,Variant
1,disrupting interaction strength,E98D
2,disrupting interaction strength,F180C
3,disrupting interaction strength,G70R

# Variants of: B1
# Settings: with PLXNB1, O43157-1
# Remark: another data set of the same source
row,effect of a mutation on the interaction,Variant
1,disrupting interaction strength,T45A
2,disrupting interaction strength,E48A
